Measured values published in the domain aggregation screens of Martell et al. (2025).

Test: soluble fraction after stress (log2 fold change); higher = more stays soluble; pooled small domains, quantitative proteomics
Details: stress: pH 4
Outline: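 Following acid stress at pH 4, the amount of each small protein domain still soluble was measured in pooled custom libraries by high-throughput quantitative proteomics. Its fold change, on a log2 scale, is higher when more of the domain stayed soluble. This fold change is taken as a measure of aggregation propensity.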

| Sequence | soluble fraction (log2) |
| --- | --- |
| HMESSSQLGFELARLVESGNDEEARALVQAKELSEADERKWLYHLGNLLHAAGRPLQASAIWREVGT | -0.436 |
| HMESVQWSVFPSAKYVTIISFDPTTSGGSATAKFKVSDEARSKGFRFRIEAAIGEGIMRSEMYVIEE | -0.0704 |
| HMESWNRARILEKIRELHAQGVALNNASMRRLGYRGMMEAAARPQNFGSWEAAVRAAGIDYDRV | 0.22 |
| HMETAVMPDVMKLDSTTAIQALKDKGFATIETYEVKSDRPAGVVVRQSETADSVVALSKEILLGVSNGADY | -0.00473 |
| HMETGFADTLRKFRKEADMTQEKLAEALGVTTGAVYKWENGRSTPEVRLLVEMADLFGTSVDALLDYKVR | -0.723 |
| HMETGKLIKELRLKKGMTQEELADKTEVSSRTIQRIENGEVDPRAYTLQMIARALEVDYSLFME | -0.683 |
| HMETIELSAPGGVRLDKLIADGTELSRSAAVKLIEQGNVLVNGSPAGKKDIPAAGAAVEITLPEPQ | -0.255 |
| HMETIGENIKTYRQKKGYTQEEVANRLHVTRQTISKWEKNYSIPDAEVLVKLADVLEVQTSQLLGV | ≥ 0.43 |
| HMETIGKRVRAARQELGLTMKQLHEQTGLSTGNISDIENDRNTPSVSSLVALGRALRRSLDWLLTGEE | -0.555 |
| HMETISEIWRLIDGLDEIYRVPLTMYYRSNRSVREIAETLGLSARTVETRIYRARRMIREKWSN | -0.679 |
| HMETITDRLNRRSLELNVSQADIIRTTGAGRGTVSGWFSGANAPSAKYLESLAVALKTSTTWLLSGKD | 0.0972 |
| HMETKERDEQFLEMIRQNEGIIFKVASFYVDKEHPIGDLYQEVVLNLWKGYPSFRGESKYSTWIYRIALNT | -0.504 |
| HMETKPTELMLEVHELRIGMFVHLDLGWMDHPFPLNRFKISTNSQIEQIKGLRLKQVKVMTALSDPTALS | -1.25 |
| HMETKQYIVEAQDEGTRLDVYLTKELGQSRSYVQSLVKEGHVQVNGKTGKSNLKLSSSSEILVTIPEVQ | 0.0538 |
| HMETLKINTHLGTLNLKKRGKKGTWQINIYFKNIEGDNHYRQSTGTNQLELAKAKAMNMITTEYSNRLAGI | -0.259 |
| HMETMSYAEFNAIRIGKAKLMLADPSLKIWEISEAVGYTDTAHFARTFKKLEGMSANEYRNSL | -0.713 |
| HMETNFTGTRIATARKAKNMSQAQLAQQLFISPQAVGKWERGESIPDIVTVVKLADVLGVDLNYFSE | -0.403 |
| HMETPQIVARGDLITMVFRSGSLVLTAKGKALENGAMGDTIRVVNSDSNKTLAARVSASREVTVSE | -0.146 |
| HMETPSNTAGITHATSDGYIFKGESDIIGRNSFGFIVKHGSHNHIIPFDSLRGTKWEYLINKYT | -0.03 |
| HMETSVDEVYKKIQAYIEAEDKHKPLSDQKLAEQLQSDGLKVSRRTVAKYREKLNIASSSKRKR | 0.379 |
| HMETTVPNVLNHNISTGEILLKENNLNFRIQYIPSNKDEAVGTIINSVPTSGEKVKFGTVVDLKVL | -0.0719 |
| HMETVRHFRLDWSQAADRLDKVLASLMNDVSRARIQEWIRLGAVSVNGEILTDVRAKVAGGDAIDVTPQTA | -0.0931 |
| HMETVRLSVDAQGAYYWNEQRVDDSALPDLLREASGRKPQPDLHIRGDKAVRYERVAEAMAAAQRAGLKKI | -0.178 |

| Sequence | soluble fraction (log2) |
| --- | --- |
| HMETVVTEVKTTDVVNIRTSDSETADKLSKAAIGDTFPLLEERGNGWSKVAYNGEEAFIKSDYLEPSKTE | -0.654 |
| HMETYEFNITDKEQTGMRVDKLLPELNSDWSRNQIQDWIKAGLVVANDKVVKSNYKVKLNDHIVVTEKEV | -0.2 |
| HMETYPINVETTGTNVLLRTGPSTSSNIIKTITDKGTVFLSIERGINSDWQKVVTPDGTIGYMSGKY | -0.314 |
| HMEVAVQFIEFKIPENHAWIGKEIREITFPPESILVLIIRDGKKLVPNGKTVLKEGDSLILSGKASD | -1.61 |
| HMEVDDEAIYQGHEPSIRLHRLLKDVGYNSALLPSVVTQIFKDFPGIELAKALPIAMQLLNED | -1.47 |
| HMEVFGDTKEEQMIIDILKLGITDLEHLQAKSMLEPAIFSQTLTMLEISGKIRPLGAGHWTL | -1.49 |
| HMEVFTPSEANVAEAREILAAMATAKANGEGATVYKGRLVDIASIKQAEVIVRQSEMIQSAH | -0.151 |
| HMEVIDQLFKIALTLFDIDKGENNSISQDLVDKVIEQMKTTAPTFIKRELSEDEVKKLRFEIQNHFNV | -0.411 |
| HMEVKSGFVHLTGAVKSPGVYPISIGMRLFEVIALAGGFTAKADRESVNLARTVTDGEQIIVSGSG | -0.778 |
| HMEVLEGFIEDIKFKSEESGYTVAKLNNRNKSIVIVGTMPFISEGQHVKLTGEWKIHQKFGAQFNVKELEE | -1.37 |
| HMEVMYFIYQQEEPMRIDKFLVNEMEDFSRNSIQIYIKDNHVLVNDKVVKANYILKKGDAISITIPDPI | -0.768 |
| HMEVNMEEKMEFVHSYIKTHKTFLFRQLLSESKSRTQVIVTFLVILELIKGGKISVTQENRTDDILINSL | -0.521 |
| HMEVPDTIIRLRELVAAMPEQWQKVYRLVFMEGLSKAKAGKKIGISDVRVGQLVKKINAAIAGDETLK | 0.0594 |
| HMEVPMELPRQLRANRERLGLSQEDVAHAIYVSRQTMSSWERGKTYPDVQSLMLLSHLFGISIDELVKGDV | -0.338 |
| HMEVPVQYIKFKIPENHFWAKKKVADIILPPETLLVLLQRGSDKMIPDGETVLLPEDTLVLIAKAPG | -0.783 |
| HMEVSVPDFTGMSKSDAQNAAKEAGLTVNFEEDYDNQVPAGQVIRSNPSAGEKVKKNSSVTVTLSKGSN | 0.24 |
| HMEVSYSLPRFHKGKNPYVDFYQVDPRTLRMRRKKFLLRGVRDAVLLEQRAADLVALLTERLHSGWNAWDD | -0.463 |
| HMEVTENQEKHAYQEAMDQALRFLAPRFLSRAELTRKLLQKEHDRDVIDAVIDRLEELDYVDDAR | -0.69 |
| HMEVTLGLGSMVRLLGEPYLGSTGRVVELPDQAERFASGLTAKVAVVERHDGELIRVPVTNLLLME | 0.214 |
| HMEVTLTLKSFGTAKVAVIKAIQSITGLGLMDAKKLVDAAPSVIKEKISPSEAEQYKKTLVDAGAEVEI | 0.0249 |
| HMEVVVPDFEKIYIRDLDKFVEGHNVRYEIVDSIYNLEKDKGTVVDQDPEPGSKVKHGRVIYLTVNAML | -0.678 |
| HMEVVVPEDLDAALQQASRAQSFFSSLSYTHKKEYVAWINEAKRAETRAMRIQKTITMLESGQRGH | 0.28 |
| HMEWEVHSVTVTPELSGERLDVAATALLSQFSRALVQRWIDANELTLNERPVKAKSKVRVGDLIAVKAK | 0.0878 |

| Sequence | soluble fraction (log2) |
| --- | --- |
| HMEWLENIKKLKKEKGLTNESLSEKSGISVGTLNKLLSGATTDPKLSTLRPLADALEVSLDELLAI | -0.187 |
| HMEWTDIPTHKVPNVVGKSVEEAKKKLSKFTIEYSGTGEKVVAQSPDAGEKLEEGGTVRLLL | 0.00183 |
| HMEYEETMSQIKHNLNLLPRQQRVIIEMAKFDELTPAEIAKQLGISVQTVRNQLSTGLKKLRQLL | -0.373 |
| HMEYKKKIGELLIDGNKKLKAANIDTYILDTQLLLGKVLGKDKLYLITNKDEEVSNFKEREFYSLIEKRI | -0.304 |
| HMEYMKQRLYDIIELFKRSFSPSFSEEEKKKLENVLQDDFLRKAYEQLSDEVFIEEKFREFDGY | -2.28 |
| HMEYPNEIARIFNQIPELNVSAVARTLGINKSLLSSYIYGMKKPSPERTEEIKSAIRKIGQNMLAV | 0.000369 |
| HMEYQSLVLDFLEQGDFNAEKLKDYQRAFAKQNGMQTLPSKSQILQAYFQLVEEKKINKNSDFELLLRKR | -0.362 |
| HMEYSNLGEALRRLSEIDLQIILLKYSHGFSIKEISKILDIKEVNLYKRNKRALNKLKKILAEMEVLSN | -0.272 |
| HMEYYDDEELDRFRGVEADAYDEDAVNEFRDVLYTLQEIEVAGWLRSLQLRAINLPDELKDEAFLI | -2.01 |
| HMEYYEDEELDRFRGRNSDQYSDAEIEEFNEILTTLRSEEVAGWIRSLQLREIALPDELKDDVILLVG | -1.51 |
| HMEYYIMPVANLHKVVVDGKDMSNLISNNAIAVKANVIDEGQIQIKPGEIIITTPAGVSPEEAVRSP | -0.135 |
| HMFANQLLLTRFDLNYIKSDVLSRQIDVLGIPIKKLTIEANNKSIWLQGTSQSLSKVRELIGIIDIRENA | -1.73 |
| HMFAQDKKFITYKVKEGETVQSISKALSITPYDLLKLNPDIKDNVSQDDLLIIPNKQYDPLGDI | 0.421 |
| HMFDENVKLIENEYDVSIISRGSELKVMGDVENVDKAARALRSMLAMINKGESLTEQNVRYVLTLVNEGNE | -1.38 |
| HMFDFLELGQAIQDAREKQRITREELAEELGISARHLQSVEKEGQYPSFRLFIQLVTMFHISVDQYI | -0.586 |
| HMFDLATVKRVAEEAGMKFTIHPVELRAAHPNTAVLTLKSKAGRILVLKAASVGGGRIRVTEIDGVPAD | 0.219 |
| HMFDLDIEQIANDLKHGVMPNLYGLSLQDALYLLEAKGIRVKVAGSGSVVNQSIKTGAYVGSGSVLKLEL | -0.833 |
| HMFDLSQRQEQIIEIVRKHGPITGEKIADLLYVTRAALRPDLAILTMSGYLEAKPRVGYTYK | -0.0725 |
| HMFDMLGDQIKKYRKEKKMSQEELAIPLNVVRQTVSKWENNLSVPDAELLIRLAEVLEISVAELLGT | -0.76 |
| HMFDTVFIVRKTSDKPLDGLRTYLNSIGDSLVIGEDDEAFKVHVHTNHPGKVLEEAITYGALQTVKIENMR | -0.585 |
| HMFDTVTIGRKIAELRKAHNMTQFELADALGISFQAVSNWERGASMPDISKLPELAEIFGVTIDEVLGK | -1.06 |
| HMFEATGKITGTEVSFRRKPTTDSERILFFDINTEFRVIGINNGWYKGVYQGKTGYVRSDFVEIVGG | -0.448 |
| HMFEEPYLATYPVLIDPKLAFNVLDTMLEGLEVKMDQDEETGAISVLAPASIHTKITEYLDALSKQ | -1.74 |
